Experiment: protease stability score; higher = more stable; yeast display proteolysis, trypsin and chymotrypsin;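 also: log10 excess protease needed over predicted unfolded state with 0 meaning unfolded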

DESEMQKAVEDIVKMLETGNETKFQENAPPDVRVDVGDKRFTGREDLRKWVHDVKERVDRIRVTHYSAHGEDVVIDVVYRHNGTNERANIVVHIHNGRMVQMKVQQS
protease stability score: 0.944

DSEAQKIAEKLHEAWNTNNPNEAQHLMDPNAHVRVGDKEIDGMDQYVREMQRLLDKLRLEVKDWDVRAHNGNVTLRANARVDVNGQPQEYTYVIVMQVKNGRVKELHLHIDEEELRTLES
protease stability score: 1.02

DETAVHAARRYLHAVTEGDPDKVNEQVDPNAKLTYGDKEVHGSSQVKEEVETQNRHSRIQYDSVTFDHQGDKVRADIDMKQDSNGRPKRRKMVVDFRAHNGKLQHVNAQDDN
protease stability score: -0.224

DEETKAREFIKKVQNVMRTNNPEDFVKQFDPNARMVVGDKSYHGRDDVRKWAQDLFRRADHVSMSVKRLSVHNGRFHMQADLEVHVNGHREEVKVVMNAKDENGQILIKHARFE
protease stability score: 1.77

DEKEHEDVAQEAVHAVQSGDPKQMVEMADPNARVVVGDKTLHGHDRIEEMVKHLRKRADHVRIIDVQVQGDKVVIRFQVVVDGRTYDVYIDLRVHNGEAKEIRFDPRRQKEMHG
protease stability score: 0.758

DEEFAKTVVQMFRNWVHGDPSDMTRMLDENAHVVIGDTTLRGRDDVSRYVNELHDHMRFHVDRLSEENRPGRAVVKAQNNNVHNGEPTTNRAVVEVNVKNGKAQDIQYNSDK
protease stability score: -0.36

DEEVRHVAEEHFRAFSDNDPDRAKQLADPNARFQYGDREIHGMEDFVKHLETLKRDMRIQIHIKSMDVHNGRVDVTFNLMAHVNGQPFRIEVRATFEAHNGHLVEVQYRFDKKWQKTLES
protease stability score: 0.861

DEEEKAREQQEEFQKALEKNDKEKIKNYFDPNVRVHVGDKTLHGREDVAERLIQLAQHVDHIQVEIKKLDVRNGRIDVDVVVVFERNGQRSTQRFKITMKINNGRAYVQHMKQS
protease stability score: 0.109

DEQKDEEIRRVIENNDWTEVKELADENVKASVGDKRYHGREEMEKFWKIVHDRADHIEYQDIHVHNGQFNAQVVINVNGQELDVQITMRAENGKITNMSIHATSEEVKERIKEMFS
protease stability score: 0.73

DSHTIAKELMKTWQDAARNNDEDKLKELIDKDASASVGDKTFHGRESFARHVQEQARRADHLEVRLESMSINGDHIHLQFVVRYNVNGKESSDRYVVIFHKVNGKFRVRQIKQR
protease stability score: 0.721

DERKAEQNARDLAQALITGDPKRVMDLADENAEVQYGDKTYSGRERLDEVVRSFRRAVDHVDVDDIKEKGDHLRIKMTIQHNGQTRQVTLDIRVKNGKAEQIKFDFTDKDWYRRAIK
protease stability score: 0.344

DEDNTDRARKFFEALRTNDPDQVSSLLDPNARVHIGDRVINGREEVRTHIKHLTDKIRFQIQKVTVHVSNGRISAHVTFEVEVNGRPDRFNMEVVARVENGKIKVMQFKISEDQMQKLRN
protease stability score: 1.39

DDDEARKALQWFSTGDPDKLKKNVDENAKVQIGDKEYQGRDQAATALVKLQKRVDHVEIKHVSIDGDDVVVDLVLNVDGHEVRFTNEFRVENGKFQDVHINVTNEEDEKILKRVLG
protease stability score: 0.932

EEKLRERIKKFIDIMQTGNPEELEKQADEDAHFEIGEKRVHGMDDYAKEVQRELEDAQVRINVDSVRASNGRVEAHATMSETRNGQPRTAELKLEAQFHNGRIKHVRLHKHQ
protease stability score: -0.059

DEDEVRKAKKYIENWEQGNPKDLQEQADENASAQYGDKRIHGMTKIAKFVHKEHEESRVEIQDVQIEAHNGTVHIEIRAIFDHNGKPSQKKVFMSMTMHNGKVKDAELHSDK
protease stability score: 0.155

DEHELNKFEQLLRDRETGDEEHLKRLMDKDARVNVGDKNVHGREEAANQQVERVKRMDVRILHMDLKDNNGKINADITRIIHTNGHPDKHQFVLTVDVKNGRVQNIRQDDTS
protease stability score: -0.284

DEHKLKEFATRIMEAWEQGDPRKLEELMDPNARYIVGDKTLHGREEAKKRMEEFRKNVDHVEFTSVRAQNGHISITFVANVNGERETRVVDIKVDNGRVKNMDIKHK
protease stability score: 0.7

EEELRHTAHELQKAYEENDPEKILENLDPNAQVQIGDRRVHGRHEIRKLMEHFERQARVRVHDVKVDVHGNKINIQVDAEQNHNGEPRSFTVQAEMTMHNGRVKSIDMKIQG
protease stability score: 0.612

DEEKEDKLLLKFARVVLQNNPEDLTRLMDPNAHLEVGDQTWHGREQVSDVLSKFAKRVDEVEVEDYDKRGNDLKVVMTLNINGKNIKVNLTFVVSNGRVTNVRLDPEAQKKIEK
protease stability score: 0.37

DETNRKQASRVLENLQTGDPRQVSELVDPNARVTVGDKQVTGRENIMQRVKHELDQSRIQIDHYEIDDKGESADLRMTQQVDHNGNPTRTKYQVEVEAENGKIKEITIEERS
protease stability score: -0.271

DEHQRRKAKEFLDALRDGNPDDVKKYVDPNARRTVGDKSIHGRDQISHHVEKLKKKMRIEFRIQTITVHGNHIDIKAKMEFEINGKPNTHTFSQSMHAHNGKIKDIHVRIPEEVLRKSKR
protease stability score: -0.06

DEEKRAKTIVKKIHKAWTHNDERTFKNMADPNAEVRVGDQTYHGMEQWQREQAKRAQNYDHVDFDVKNVEVKGEKVDILMEFQMNDNGKNDTERRVVVVVDVNGQDRIRSVHKG
protease stability score: -0.256

DEEDVKKAETLIKNGDWERIANHLDPNAKATYGDKTFHGHEELKRVIKNLQDQVDSLHIHKVDVQGNSVIVSADLHVNGETLKMTFVMHVHNGRVKEVSANVTSSELKELLDHMLS
protease stability score: 0.749

DEDKNNRDMQDMIRAVITNDEKRVQELMDPNASVTVGDHTFKGTEAVTHLITDLRNHIDHVELNSVSVHNGKAKADMVFTVNGQHVKIEMNAQAHNGKVTQFDVSARSEEEHKKYKQ
protease stability score: -0.542

DERAHEAIENWLRAEQTNDPKQVKDNADPNARVHVGDKVLHGMEEIQDELKRRIDQARYHIKDFHIDIQGEKAQIDREYTFSINGRPMSNTVRQEAKVDNGKIKEVNFRVSEELEDQEHK
protease stability score: -0.242

DEDANKVMKKVVEAIKEGDPDTIRKLVDPNARVNVGDTTVNGREEFARQNHEKMNQSRIHYLSMDFEQREGHAVVTVRFEKHHNGKPDTDRYRATANFKNGKLTEYKQKEDG
protease stability score: -0.291

DQEKKATRFARKLIHDIRTNDEEHLVDLADPNVKVQYGDKSYHGREQFKKWWKDLMDQADHVDVKVRDLKVDGNKFVLVYSYVMNHNGQKREVEMNVSAKDKNGRINIQSIQMG
protease stability score: 0.301

DESELERAIEMLEQNDPEEARRQVDKNAHMQVGEKSWTGREDVQTALVKHNEHVDHVEVKSVTKRGDKAEVKARVEFNGHNLKANFIVEVHNGKIKHVRVEVTDEEQKKLMRELLQ
protease stability score: -0.363

DDDQVRKYQHWLQEQEKGNEESLMEKMDPNVRIRVGNNEVHGREQAAHDIRKTQQEIRVQIDFKSVDAHNGRFDFKFTAQFEVNGTPFRYSASATVVAHNGHIKRVEIRVDPEVQRKRNK
protease stability score: -0.079

DEEKVKVARKFMEVVKENNEEDAHRLASENVDVVVGDKRLHGRSNLMRKLRKEREEWRFRISIKDIKVENGRVHIHFKVQRVVNGQPQTYEQRMVMVFHNGRVKSVHYRIPEEQLNRIES
protease stability score: 0.463

DDHETAKQIMETWKQIVEDGDEHQAQRMADPNVHANIGDHTVHGKEEFKKMLRTWRDRVDRIEVTFRHIEVTGNKLIVVVDVRLDVNGKEIHVHMVLNAQKQGDEAKVETVVVE
protease stability score: 1.24

DEDDLRHVEKVLRENDEDTFAEMADEDVSADIGDKTLTGREEVKKMLQKLHKQADHVEIKSVTNRGDNVKVDMVMNYNGRNLRFSRSAEFTNGRIKHVSIRVTSEEDQDVLQRLLD
protease stability score: 0.811

DENIKRTMSDFLHAVRDGDEDKLFKLADPNARMKYGDKDVHGMEEIVHQIKRLRRDASVDIHIKRVEVDGNRVDIKLEVVVNVNGRPQRYRFEIKVRFHNGRINALENNIDEDQLRKIES
protease stability score: 1.21

DEDRYRRKIEEVFKQVENGDEKKMKKDLKENVKYKYADKEKEGPEVAEHIVKVVKKIGAEVTRKEQEVKGDTLRAKFQYRKGDQTVRTEAEATYEGDQAKEVRVKMTDEVKKIVHQG
protease stability score: 0.05

DDDTDRKVAEDAWRAFEKGDHKRLIELMDKDAEVQVGNRRVSGREKAAHEMVRMVERADHISVKSIDIRGDKATIKFQVNVNGHNQEAKVVFRVQNGRVQEVKFDPTMEKALRT
protease stability score: 1.39

DERAKEVFKELIEAWKHGNEDQVREMADKDARFTVGDKEIHGREEWAKQIRERHEKIRFEMRIRHVHVNGDRLSIEADFSVDINGQPLSYRMKIELRIHNGKIKELVFQVSEEDKNKQKR
protease stability score: 0.576

DDNLRKHVDNLIKLLQDGNPQELVNMADPNARVTIGDEQVHGREQLHEDWHRQAKEMRIQWDHYRVDAQGDKVRVNATRTLQTNGKPDSERFHVEMRLQGDKLQTERVDVHK
protease stability score: -0.265

DEEKAQRLMKTLMDYIKNGNADKAQQMLKEGGKVKFGDEEVEGPEEMKKYVKKFKDKGIETHYKEEKFEGNTATVHTEAKLGNAKVEFEAHYEAKGDKVVRAEVKYDEDQYEKFKKS
protease stability score: -0.286

DDQALRLLEEWLKAVQEGDQERAHEMADPNAKFEVGDKTINGMDDVNEQIRRDTESMRYQVQNVHSITRPNHVQADVQFENEHNGNPDTNRMVIQARATNGRIQSLRIQDKK
protease stability score: 0.058

EEDKAKEAKEIWDKNNERDLRKKADKDARADVGDKKVHGMETAVQMWSKVRQHVDHVQYHDLKIQGETIRIDFVLHWNGRTVRAQVEFKVSNGQLVDFKLKFTDPDQERKLHEMQK
protease stability score: 0.123

EEEVVKEVTKAAKTGNFEKLLRLADPNVEMRIGDKTFHGRTELKDALRDIKQNADHIELKSLDSHNGRLEVDLVVNVNGKDVRFILRVSVHNGRITQMSVESRDTDFKKVLDEMLG
protease stability score: 1.91

DHEAQKALRDVIEAIRENNPDEVKKQLDKNATVRVGDKRLHGTEEQRREVQKKLDEIRIRYQDIKMETSGDTVRASIQFVENHNGEPQRDRVTASMSADNGRVKHFVVTETQ
protease stability score: -0.041

DEEKATEQAKEAIKALHTGDPRTMVEMLDKDARLRVGDNEYKGRDKVRNAMEEFTKRADSVRVDSVSVHGDKAVIHFKVRYNGQTIEVVLSLSVTNGRIVKAELDYRDEDTLRRLQK
protease stability score: 1.11

DEDANDVVRKYIEAVNTGDPDQVNELVDPNVRVEVGDKTLSGHEEIRKEQQERTKQSRVEIEVKQMKVHGDNIILYAVVRYNHNGKPSSRHVKMTFSAHNGHFKHIRVHDDQ
protease stability score: 0.809

DEEIRDEIKKYFKALETGDPDKMREMFDPNAKVQVGDKVYHGMSEAARHWVRRAEKIRIEIQDLNIDVHGEDVVVEQVLVEDKNGRPQRKTERLTMDVEDGRVKRAHRHSVK
protease stability score: 0.186

DEDITEAVRRLEKAREDGDPNKVRELLPEDARAQYGDKTYHGRDEVAKYRETEMKQMTVQMNIRSVENHNGRADIEFEVTREHNGKPTHDHNRATILAHNGKIKVIEIHSTK
protease stability score: -0.422

DDQQKAKTHVRQVRDAATSNDPDEMRRLADENARFVVGDKEYEGRDQVRELVERERDNVDQVEIRLTDVEKRGDRLRLEVRVVWNHNGSHDHKILDMIVQNHNGTLRFVQLQQR
protease stability score: 0.366

DEDVVKEWMTDQRNNNEKRLQSLVDPNAKLEYGDKSIHGDEEMHEWAKKLRESVDHWEVKEYDIHNGTAEADVVVQFNGREIRYQFVAVAHNGSVTSIVYRARDEDFERFLDDIFS
protease stability score: 0.165

DEEQAKTVMEEWAKAVQKGNTEKLKKLYKPDVEWKNGDKKNQGVDQVETQVKKAKDQGVEFQVRKAEVKGNRVRVVYDAKVGDKTVTFTVEFDVDGGKIERVRVEVDEEAKKVQKQG
protease stability score: 0.322

DDRQVERLAKEVVKNLETGNPNEFMKLMDPNAKFEVGDQDIHGREQWSEWVDHLSKHVDSLEVKSVTAHNGRVDIDMVFRVNGEKRVVKIVITVKNGHIKEMEIREQ
protease stability score: 1.2

From the NTF2 design screens of Basanta et al. (2020)
